Test results from US20240228986A1, “ENGINEERED CELLS, ENZYMES, AND METHODS FOR PRODUCING CANNABINOIDS” (priority 2021, published 2024).

B1: APT73.74: recombinant soluble aromatic prenyltransferase, SEQ ID NO: 37 (protein)
chain: MDEVYAAVEQTSRLLDVPCSPDRFEPVWKAFGDQLPDSHLVFSMAAGEAHRGELDFDFSLRPEGADPYTTALEHGFIEPTDHPVGSVLAEVGKRFAIASYGVEYGVVGGFKKSYAFFPLDDFPPLAQFAEVPSVPPCLAGHVETLTRLGFDDKVSIIGVNYRKNTLNVYLAASAVDTGDKLALLRAFGYPEPDARVRQFIERSFRLYPTFNWDSSAAERICFAVHTQQPGELPAPHDEPTEAFARQVPHVYEGGREFVSGVALAPSGASYYKLAALYQKARRCLH
modifications: APT73.74 (mutant soluble aromatic prenyltransferase)
B2: APT73.77: recombinant soluble aromatic prenyltransferase, SEQ ID NO: 38 (protein)
chain: MDEVYAAVEQTSRLLDVPCSPDRFEPVWKAFGDQLPDSHLVFSMAAGEAHRGELDFDFSLRPEGADPYTTALEHGFIEPTDHPVGSVLAEVGKRFAIASYGVEYGVVGGFKKSYAFFPLDDFPPLAQFAEVPSVPPCLAGHVETLTRLGFDDKVSIIGVNYRKNTLNVYLAASAVDTGDKLALLRAFGYPEPDARVRQFIERSFRLYPTFNWDSSAAERICFAVHTQQPGELPAPHDEPTEAFARQVPHVYEGGREFVSGVALAPSGASYYKLAALYQKARRCLD
modifications: APT73.77 (mutant soluble aromatic prenyltransferase)
B3: MPT21.8 (protein)
chain: MSDNSIATKILNFGHTCWKLQRPYVVKGMISIACGLFGKELLHNTNLISWGLMWKAFFALVPILSFNFFAGIMNQIYDVDIDRINKPDLPLVSGEMSIETAWILSIIVALTGLIVTIKLKSAPLFVFIYIFGIFAGFAYSVPPIRWKQNPSTNFLITISSHVGLAFTSYYASRAALGLPFELRPSFTFLLAFMTVMGMTIAFAKDISDIEGDAKYGVSTVATKLGARNMTFVVSGVLLLNYVAAILAGIIWPQAFNSNVMLLSHAILAFCLIFQTRELALANYASAPSRQFFEFIWLLYYAEYFVYVFI
modifications: MPT21.8 (recombinant membrane-bound prenyltransferase)
B4: MPT21.10 (protein)
chain: MSDNSIATKILNFGHTCWKLQRPYVVKGMISIACGLFGKELLHNTNLISWGLMWKAFFALVPILSFNFFAAIMNQIYDVDMDRINKPDLPLVSGEMSIETAWILSIIVALTGLIVTIKLKSAPLFVFIYIFGIFAGFAYSVPPIRWKQNPSTNFLITISSHVGLAFTSYYASRAALGLPFELRPSFTFLLAFMTVMGMTIAFAKDISDIEGDAKYGVSTVATKLGARNMTFVVSGVLLLNYVAAILAGIIWPQAFNSNVMLLSHAILAFCLIFQTRELALANYASAPSRQFFEFIWLLYYAEYFVYVFI
modifications: MPT21.10 (recombinant membrane-bound prenyltransferase)
B5: MPT4.1 (protein)
chain: MSDNSIATKILNFGHTCWKLQRPYAVKGMISIACGLFGRELFNNRHLFSWGLMWKAFFALVPILSFNFFAAIMNQIYDVDIDRINKPDLPLVSGEMSIETAWILSIIVALTGLIVTIKLKSAPLFVFIYIFGIFAGFAYSVPPIRWKQYPFTNFLITISSHVGLAFTSYSATTSALGLPFVWRPAFSFIIAFMTVMGMTIAFAKDISDIEGDAKYGVSTVATKLGARNMTFVVSGVLLLNYLVSISIGIIWPQVFKSNIMILSHAILAFCLIFQTRELALANYASAPSRQFFEFIWLLYYAEYFVYVFI
modifications: MPT4.1 (point mutant, membrane-bound prenyltransferase)

Assays:
Format in all cases: cell-based, Yarrowia
olivetolic acid [1] = test: Unfused rMPTs and APTs, CBGA/FCBGA formation in vivo assay (Example 4); settings: for CBGA / FCBGA / CBGA/FCB: 2 mM olivetolic acid, 48 h quench; for CBGA / FCBGA: 2% glucose, strain sCL-SE-0128; for CBGA/FCB: product ratio
Method: (§1) As described below, plasmids pCL-SE-0380 (MPT4), pCL-SE-0337.MPT4, pCL-SE-0338.APT73.74, and pCL-SE-0338.APT73.77 were transformed into strain sCL-SE-0128. Multiple colonies per transformation were precultured for 48 h in YNB containing glucose (2%), casamino acids (0.5%), and MES (100 mM pH 6.5). Pre-culture was used to inoculate assay medium comprised of YNB containing glucose (2%), casamino acids (0.5%), MES (100 mM pH 6.5), and olivetolic acid or divarinic acid (2 mM). Cultures were quenched with equal volume of ethanol after 48 h total growth and assayed for CBG(V)A and FCBG(V)A. Averages and standard deviations were calculated from replicates.
(§2) Overnight YPD (10 g/L yeast extract, 20 g/L peptone, 2% dextrose) cultures were inoculated from glycerol stocks of the appropriate strain and grown at 30° C. with 250 rpm shaking. Once cultures had reached an OD600 of 4-6, cultures were centrifuged at 500×g for 5 min, supernatants were discarded, and cell pellets were resuspended in equal volume of water. Resuspended cells were centrifuged at 500×g for 5 min, supernatants were discarded, and cells were resuspended in a volume (75 μL×OD×Vculture) of transformation cocktail (45% PEG-400, 0.1 M LiAc, 0.1 M DTT, and 25 ug/100 μL SS Salmon Sperm DNA). For each transformation, >1 μg of plasmid DNA was added to 55 μL cells/transformation cocktail and vortexed for 2 s. Transformations were incubated at 39° C. for 1 h with 250 rpm shaking. Transformations were resuspended in 750 μL YPD with 1 M sorbitol and recovered at 30° C. overnight with 250 rpm shaking. The next day, transformations were centrifuged at 500×g for 5 min, supernatants were discarded, and cell pellets were resuspended in 750 YPD. Resuspended transformations were plated on YPD with appropriate selection or YNBD (6.71 g/L yeast nitrogen base+nitrogen, 0.5% casamino acids, 2% dextrose) agar plates and grown at 30° C. for 2 days. Individual colonies were patched onto YPD plates with appropriate selection or YNBD plates and grown at 30° C. overnight. Patches were used to inoculate 0.5 mL YPD with appropriate selection or YNBD precultures in 96 w blocks and grown at 30° C. for 24-48 h with 1000 rpm shaking. For assays, 0.5 mL YPD with appropriate selection or YNBD cultures containing substrate were inoculated with 2 μL from precultures and grown at 30° C. for 2-4 days with 1000 rpm shaking with 2% glucose added every 24 h. Assay cultures were quenched by addition of 0.5 mL ethanol with 0.2% formic acid and 0.5 mg/mL pentyl-benzoic acid. Precipitates were pelleted by centrifuging at 4600×g for 10 min and then 200 μL was transferred to fresh plates, sealed, and analyzed via HPLC.
(§3) All samples were quenched with equal volume of EtOH containing 0.2 mg/mL internal standard (3,5-Diisopropyl-2-hydroxybenzoic acid CAS #2215-21-6) centrifuged, and clarified solutions were analyzed by HPLC-MS
(§4) • Column: 2.1×50 mm COSMOCORE PBr (Nacalai USA, Inc.) • Mobile Phase: A; 0.1% formic acid in water, B; 0.1% formic acid in acetonitrile • Flow: 0.45 mL/min • Temp: % 50 Celsius • Gradient: 20%B at 0 min, 70%B at 2.3 min, 89% B at 4.2 min, 20% B at 4.3 min, 20%B at 6 min

divarinic acid = test: Unfused rMPTs and APTs, CBGVA/FCBGVA formation in vivo assay (Example 4); settings: 2 mM divarinic acid, 48 hour quench; for CBGVA / FCBGVA: 2% glucose, strain sCL-SE-0128
Method: as §1, §2, §3, §4

olivetolic acid [2] = test: GPS-APT fusions, OA feed in vivo assay (Example 11)
Method: as §1, with “plasmids pCL-SE-0406, pCL-SE-0664, pCL-SE-0663, pCL-SE-0662,” for “plasmids”, “pCL-SE-0337.MPT21, pCL-SE-0337.MPT26,” for “pCL-SE-0337.MPT4, pCL-SE-0338.APT73.74,”, “pCL-SE-0337.MPT31” for “pCL-SE-0338.APT73.77”, “acid” for “acid or divarinic acid”, “CBGA” for “CBG(V)A”, “FCBGA.” for “FCBG(V)A.”
Soluble prenyl transferase APT73.77 was fused with GPS1.1 at the N- or C-terminus with different linkers creating the plasmids shown in Table 14. These fusion proteins were expressed and screened as described in Example 8 (olivetolic acid feed)
as §2, §3, §4

olivetolic acid [3] = test: GPS1.1 fusions of MPT21 mutants, OA feed (Example 8, Table 10); settings: in words; mutagenesis of MPT21, tested as GPS1.1-F11 fusions
Method: as §2, §3, §4

olivetolic acid [4] = test: MPT4.1 with and without GPS1.1 fusion vs MPT4 fusion, in vivo assay (Example 5); settings: 3 mM olivetolic acid, 48 h quench
Method: As described below, plasmids pCL-SE-0337.MPT4.1 and pCL-SE-0753 were transformed into strain sCL-SE-0128. Multiple colonies per transformation were precultured for 24 h in YNB containing glucose (2%), casamino acids (0.5%), and MES (100 mM pH 6.5). Pre-culture was used to inoculate assay medium comprised of YNB containing glucose (6%), casamino acids (0.5%), MES (100 mM pH 6.5), and olivetolic acid (3 mM). Cultures were quenched with equal volume of ethanol after 48 h total growth and assayed for CBGA and FCBGA. Averages and standard deviations were calculated from replicates.
as §2, §3, §4

[5] = in words, between APT73 mutants
[6] = olivetolic acid feed as in Example 8, 48 h quench, strain sCL-SE-0128

Molecule	CBGA (olivetolic acid [1])	FCBGA (olivetolic acid [1])	CBGA/FCB (olivetolic acid [1])	CBGVA (divarinic acid)	FCBGVA (divarinic acid)	ratio of CBGA/FCBGA (olivetolic acid [3])	other results
B1	123 ± 5 µM	18 ± 1 µM	6.7	10 ± 0 µM	0 ± 0 µM		selectivity (CBGA/FCBGA) (olivetolic acid [1]; [5]): better selectivity
B2	145 ± 13 µM	55 ± 3 µM	2.6	10 ± 1 µM	1 ± 1 µM		overall activity (CBGA+FCBGA) (olivetolic acid [1]; [5]): better overall activity; CBGA (olivetolic acid [2]; [6]): 215 ± 11 µM; FCBGA (olivetolic acid [2]; [6]): 32 ± 1 µM; CBGA/FCBG (olivetolic acid [2]; olivetolic acid feed, 48 h quench, product ratio): 6.8; CBGVA/FCBGVA (divarinic acid; product ratio): 12.5
B3						improved ratio of CBGA/FCBGA	
B4						improved ratio of CBGA/FCBGA	
B5	168 ± 33 µM	11 ± 2 µM	14.6	28 ± 8 µM	0 ± 0 µM		FCBGA byproduct compared to MPT4 (olivetolic acid [1]; in words, OA feed, 48 h): less FCBGA byproduct; activity towards CBGA formation compared to MPT4 (olivetolic acid [1]; in words, OA feed, 48 h): increased activity towards CBGA formation; CBGA (olivetolic acid [4]; 6% glucose, strain sCL-SE-0128): 253 ± 18 µM; FCBGA (olivetolic acid [4]; 6% glucose, strain sCL-SE-0128): 26 ± 2 µM; CBGA/FCBGA (olivetolic acid [4]; product ratio): 9.7
